The target in the test is BpGH94MLG, glycoside (cellodextrin) phosphorylase of CAZy family GH94 from Blautia producta ATCC 27340 (Blautia producta ATCC 27340). As to the kind of experiment: crystal structure; crystal structure of recombinant BpGH94MLG at 2.3 Å; two copies per asymmetric unit; crystallisation methods not shown (supplement).

“BpGH94MLG, glycoside (cellodextrin) phosphorylase of CAZy family GH94 from Blautia producta ATCC 27340 (enzyme)”: the stoichiometry N was determined as 2.

The values above are taken from publication PMC10318527, “Utilization of dietary mixed-linkage β-glucans by the Firmicute Blautia producta” (The Journal of Biological Chemistry, 2023).
